Residue numbers refer to the chain shown, from its start. Names and notes keep the numbering of the source.
B1: variant ICOSL IgV-Fc fusion N52L/N57V (Fc fusion)
chain: DTQEKEVRAMVGSDVELSCACPEGSRFDLNDVYVYWQTSESKTVVTYHIPQLSSLEVVDSRYRNRALMSPAGMLRGDFSLRLFNVTPQDEQKFHCLVLSQSLGFQEVLSVEVTLHVAANFSVGSGGGGSEPKSSDKTHTCPPCPAPEAEGAPSVFLFPPKPKDTLMISRTPEVTCVVVDVSHEDPEVKFNWYVDGVEVHNAKTKPREEQYNSTYRVVSVLTVLHQDWLNGKEYKCKVSNKALPAPIEKTISKAKGQPREPQVYTLPPSREEMTKNQVSLTCLVKGFYPSDIAVEWESNGQPENNYKTTPPVLDSDGSFFLYSKLTVDKSRWQQGNVFSCSVMHEALHNHYTQKSLSLSPG
B2: variant ICOSL IgV-Fc fusion N52T/N57H/Q100S (Fc fusion)
chain: B1 chain with L52T, V57H, Q100S
B3: variant ICOSL IgV-Fc fusion N52R/N57L/Q100S (Fc fusion)
chain: B1 chain with L52R, V57L, Q100S
B4: variant ICOSL IgV-Fc fusion N52P/N57S/Q100G (Fc fusion)
chain: B1 chain with L52P, V57S, Q100G
B5: variant ICOSL IgV-Fc fusion N52R/N57Y/Q100R (Fc fusion)
chain: B1 chain with L52R, V57Y, Q100R
B6: variant ICOSL IgV-Fc fusion N52S/N57Y/Q100S (Fc fusion)
chain: B1 chain with L52S, V57Y, Q100S
B7: variant ICOSL IgV-Fc fusion N52R/N57Y/Q100S (Fc fusion)
chain: B1 chain with L52R, V57Y, Q100S
B8: variant ICOSL IgV-Fc fusion N52S/N57H/Q100E (Fc fusion)
chain: B1 chain with L52S, V57H, Q100E
B9: variant ICOSL IgV-Fc fusion N52S/N57M/Q100S (Fc fusion)
chain: B1 chain with L52S, V57M, Q100S
B10: variant ICOSL IgV-Fc fusion N52M/N57W/Q100P (Fc fusion)
chain: B1 chain with L52M, V57W, Q100P
B11: variant ICOSL IgV-Fc fusion N52Q/N57F (Fc fusion)
chain: B1 chain with L52Q, V57F
B12: variant ICOSL IgV-Fc fusion N52S/N57Y/Q100M (Fc fusion)
chain: B1 chain with L52S, V57Y, Q100M
B13: variant ICOSL IgV-Fc fusion N52S/N57Y/Q100V (Fc fusion)
chain: B1 chain with L52S, V57Y, Q100V
B14: variant ICOSL IgV-Fc fusion N52M/N57H/Q100S (Fc fusion)
chain: B1 chain with L52M, V57H, Q100S
B15: variant ICOSL IgV-Fc fusion N52S/N57L/Q100S (Fc fusion)
chain: B1 chain with L52S, V57L, Q100S
B16: variant ICOSL IgV-Fc fusion N52R/N57W/Q100K (Fc fusion)
chain: B1 chain with L52R, V57W, Q100K
B17: variant ICOSL IgV-Fc fusion N52Q/N57S/Q100A (Fc fusion)
chain: B1 chain with L52Q, V57S, Q100A
B18: variant ICOSL IgV-Fc fusion N52V/N57T/Q100L (Fc fusion)
chain: B1 chain with L52V, V57T, Q100L
B19: variant ICOSL IgV-Fc fusion N52R/N57L/Q100A (Fc fusion)
chain: B1 chain with L52R, V57L, Q100A
B20: variant ICOSL IgV-Fc fusion N52R/N57F/Q100T (Fc fusion)
chain: B1 chain with L52R, V57F, Q100T
B21: variant ICOSL IgV-Fc fusion N57Q/Q100P (Fc fusion)
chain: B1 chain with L52N, V57Q, Q100P
B22: variant ICOSL IgV-Fc fusion N52T/N57H/Q100A (Fc fusion)
chain: B1 chain with L52T, V57H, Q100A
B23: variant ICOSL ECD-Fc fusion, full length N52H/N57Y/Q100R/F172S (Fc fusion, not shown: a dimerising Fc or GST)
chain: DTQEKEVRAMVGSDVELSCACPEGSRFDLNDVYVYWQTSESKTVVTYHIPQHSSLEYVDSRYRNRALMSPAGMLRGDFSLRLFNVTPQDEQKFHCLVLSRSLGFQEVLSVEVTLHVAANFSVPVVSAPHSPSQDELTFTCTSINGYPRPNVYWINKTDNSLLDQALQNDTVSLNMRGLYDVVSVLRIARTPSVNIGCCIENVLLQQNLTVGSQTGNDIGERDKITENPVSTGEKNAAT

Biological target: T1, human CD28, full-length, expressed on transfected Expi293 cells (human, UniProt P10747 19-220)
T1 construct: whole, on cells
Test: flow cytometry, 100 nM, Expi293 cells with human CD28

MFI [MFI]	MFI ratio to WT (ΔWT) [fold]	Binder
54800	2.5	B1
143000	6.4	B2
112000	5	B3
6800	0.3	B4
3280	0.1	B5
161000	7.2	B6
133000	6	B7
117000	5.2	B8
134000	6	B9
168000	7.5	B10
131000	5.9	B11
157000	7	B12
126000	5.7	B13
115000	5.1	B14
108000	4.8	B15
131000	5.9	B16
91300	4.1	B17
6200	0.3	B18
119000	5.3	B19
127000	5.7	B20
15200	0.7	B21
113000	5	B22
138000	6.2	B23

Biological target: T2, human CTLA-4, full-length, expressed on transfected Expi293 cells (human, UniProt P16410 36-223)
T2 construct: whole, on cells
T2 sequence (P16410 36-223): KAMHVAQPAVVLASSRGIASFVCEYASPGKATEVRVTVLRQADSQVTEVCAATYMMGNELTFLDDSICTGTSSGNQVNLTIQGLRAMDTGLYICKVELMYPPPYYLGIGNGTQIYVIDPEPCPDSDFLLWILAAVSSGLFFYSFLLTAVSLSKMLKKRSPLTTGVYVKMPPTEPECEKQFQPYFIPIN
Test: flow cytometry, 100 nM, Expi293 cells with human CTLA-4

MFI [MFI]	MFI ratio to WT (ΔWT) [fold]	Binder
151000	0.46	B1
378000	1.14	B2
289000	0.88	B3
5050	0.02	B4
4270	0.01	B5
205000	0.62	B6
504000	1.53	B7
302000	0.92	B8
228000	0.69	B9
343000	1.04	B10
367000	1.11	B11
395000	1.2	B12
305000	0.92	B13
463000	1.4	B14
197000	0.6	B15
477000	1.44	B16
315000	0.95	B17
11500	0.03	B18
403000	1.22	B19
358000	1.08	B20
69100	0.21	B21
350000	1.06	B22
606000	1.83	B23

Biological target: T3, human ICOS, full-length, expressed on transfected Expi293 cells (human, UniProt Q9Y6W8 21-199)
T3 construct: whole, on cells
T3 sequence (looked up): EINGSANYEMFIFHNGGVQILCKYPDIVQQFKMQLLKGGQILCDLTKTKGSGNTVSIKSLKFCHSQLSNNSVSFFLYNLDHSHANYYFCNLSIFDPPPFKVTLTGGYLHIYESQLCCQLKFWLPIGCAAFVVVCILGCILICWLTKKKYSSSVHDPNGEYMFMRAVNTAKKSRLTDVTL
Test: flow cytometry, 100 nM, Expi293 cells with human ICOS

MFI [MFI]	MFI ratio to WT (ΔWT) [fold]	Binder
257000	1.21	B1
259000	1.22	B2
231000	1.09	B3
143000	0.68	B4
6100	0.03	B5
224000	1.06	B6
229000	1.08	B7
258000	1.22	B8
312000	1.47	B9
322000	1.52	B10
192000	0.91	B11
303000	1.43	B12
219000	1.03	B13
266000	1.25	B14
269000	1.27	B15
349000	1.65	B16
263000	1.24	B17
29200	0.14	B18
308000	1.45	B19
270000	1.27	B20
205000	0.97	B21
220000	1.04	B22
238000	1.12	B23

From US20230235012A1 (ALPINE IMMUNE SCIENCES, published 2023)
